doi:10.1101/2021.12.01.470705 (bioRxiv, 2021)

T1: WWOX tandem WW1-WW2 domains (amino acid 16-91) (human, UniProt Q9NZC7 16-91)
T1 sequence (looked up): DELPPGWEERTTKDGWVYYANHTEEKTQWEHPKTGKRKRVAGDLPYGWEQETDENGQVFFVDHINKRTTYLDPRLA

T2: WWOX WW1 domain (amino acid 16-50) (human, UniProt Q9NZC7 16-50)
T2 chain (looked up): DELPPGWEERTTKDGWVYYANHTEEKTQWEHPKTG

T3: WWOX WW2 domain (amino acid 57-91) (human, UniProt Q9NZC7 57-91)
T3 chain (looked up): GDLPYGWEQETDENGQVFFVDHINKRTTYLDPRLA


What was measured:
[1] = target: WWOX tandem WW1-WW2 domains (amino acid 16-91) (human) (UniProt Q9NZC7); experiment: ITC
[2] = target: WWOX tandem WW1-WW2 domains (amino acid 16-91) (human) (UniProt Q9NZC7); experiment: NMR titration
[3] = target: T1, WWOX tandem WW1-WW2 domains (amino acid …); experiment: ITC
[4] = target: T2, WWOX WW1 domain (amino acid 16-50); experiment: ITC
[5] = target: T3, WWOX WW2 domain (amino acid 57-91); experiment: ITC

Row | Molecule | Kd [1] [µM] | also measured
1 | ErbB4 single-motif peptide PY2 | > 100 | –
2 | ErbB4 double-motif peptide PY1PY2 (natural linker) | 14 | apparent KD, WW2 site [2]: 1000 µM
3 | KPGTVLPPPPYRHRN (peptide, UniProt Q15303 1291-1305, looked up) [ErbB4 1291-1305 (PY3) single-motif peptide] | – | Kd [3]: 30 µM; Kd [4]: 78 µM; Kd [5]: > 200 µM

Second part, led by results:

Row | Kd [1] [µM] | Molecule | also measured
4 | 27 | PY3AY3, PY3PY3 peptide with PP-to-AA mutations in the C-terminal motif | –
5 | > 100 | ErbB4 single-motif peptide PY1 | –
